According to paper PMC7371702:
Substitutions are numbered along the chain they refer to. Numbers in names are those of the source.

B1: Soluble streptavidin-binding peptide (SBP)-tagged mouse Ly6H (natural protein)
chain: LWCQDCTLANSSHCAPKQCQPTDTVCASVRITDPSSSRKDHSVNKMCASSCDFVKRHFFSDYLMGFINSGILKVDVDCCEKDLCN
B2: Soluble SBP-tagged mouse Ly6H R38A mutant (natural protein)
chain: B1 chain with R38A

Columns and labels:
[1] = biological target: YFP-tagged α7 nicotinic acetylcholine receptor (human CHRNA7 with YFP fused into the M3-M4 loop) (human) (UniProt P36544)
[2] = biological target: YFP-tagged α7 nicotinic acetylcholine receptor (human CHRNA7 with YFP fused into the M3-M4 loop) (human) (UniProt P36544); remark: listed apart in the source

Chain of UniProt P36544 (P36544 23-502): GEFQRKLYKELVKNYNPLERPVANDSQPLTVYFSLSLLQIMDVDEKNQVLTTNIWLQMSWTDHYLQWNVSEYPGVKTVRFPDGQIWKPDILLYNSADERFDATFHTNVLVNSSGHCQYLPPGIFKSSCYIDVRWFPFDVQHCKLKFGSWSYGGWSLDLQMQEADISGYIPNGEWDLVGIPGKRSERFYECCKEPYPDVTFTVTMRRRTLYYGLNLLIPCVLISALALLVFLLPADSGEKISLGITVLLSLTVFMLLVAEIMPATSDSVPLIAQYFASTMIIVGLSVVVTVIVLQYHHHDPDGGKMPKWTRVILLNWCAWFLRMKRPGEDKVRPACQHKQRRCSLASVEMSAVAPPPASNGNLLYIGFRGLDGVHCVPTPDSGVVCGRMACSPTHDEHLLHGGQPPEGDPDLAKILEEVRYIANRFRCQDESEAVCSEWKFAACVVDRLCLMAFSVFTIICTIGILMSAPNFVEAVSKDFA

Binder | inhibition of ligand-evoked α7 nAChR current in TARO cells by exogenously added soluble Ly6H-SBP (2.5 μM) [1] | inhibitory ratio: post-stimulation peak amplitude divided by pre-stimulation peak amplitude of choline (30 μM) + PNU120596 (1 μM)-evoked current in TARO cells, 2.5 μM soluble protein applied for 3 min [2]
B1 | 14% | 82.7%
B2 |  | 100%
